“Also recorded” adds a separate entry of the source.
Key:
[1] = tested on: Arabidopsis thaliana; assay: Glyphosate tolerance of transgenic Arabidopsis lines (average seedling weight +Gly/-Gly); format: in vivo; conditions: transgenic Arabidopsis lines overexpressing EPSPS gene; MS20 medium, 400 μM glyphosate, 4 weeks
Protocol: The mutated Arabidopsis EPSPS genes tested in E. coli (see Example 1) were cloned into the binary vector pEARLEYGATE100 (The Plant J. 2006; 45:616-629). Briefly, the EPSPS genes were isolated as BamHI and SacI fragments comprising the complete ORF's and then inserted into the same unique sites present in the binary vector. […] This series of binary vectors were electroporated to the Agrobacterium tumefaciens strain GV2260 and bacterial colonies were selected on LB medium containing 100 μg/ml spectinomycin, using methods known to the skilled person.
Seeds of Arabidopsis thaliana (ecotype Colombia) were sown on soil and once germinated a single seedling was placed in a 5 cm×5 cm pot and allowed to grow until the first influorescence appeared. At this stage the plants were then transformed using the floral dip method. Briefly, the Agrobacterium strains were grown overnight in 50 ml liquid LB medium containing 100 μg/ml spectinomycin at 28° C. and then this culture was centrifuged at 4000 rpm for 10 minutes. The pellets were then resuspended in a 5% sucrose solution containing 0.02% Silwet (Lehle Seeds). The Arabidopsis plants were dipped into this culture and then incubated overnight in the dark at 25° C. The plants were then allowed to grow further in the greenhouse and after 7 days the dipping procedure was repeated. The plants were then allowed to set seed which was then germinated on soil. For selection of transformed Arabidopsis seedlings, a solution of glufosinate was prepared (0.1 mg/ml glufosinate ammonium+0.005% silwet) and sprayed on the seedlings. After 7 days the surviving seedlings were identified, grown to maturity and the seeds were collected.
We performed a segregation analysis on the seed of the transgenic lines to estimate the T-DNA copy number. Seed from each of the transgenic lines was sterilized with a 2% hypochlorite solution and washed with sterile water. Approximately 100 seeds per line were then placed on MS20 medium containing 0.1 mg/ml glufosinate ammonium and the number of surviving seedlings was scored after 20 days. The lines with a single T-DNA copy that segregated […] (resistance:sensitivity) to the glufosinate were selected for further phenotyping.
Seeds from the transgenic Arabidopsis lines were sterilized and then placed on MS20 medium containing 0.1 mg/ml glufosinate ammonium and +/−400 μM glyphosate and were grown for 4 weeks. After this period the seedlings were removed from the growth plates and the average seedling weight was determined. The degree of glyphosate resistance for each line was determined by dividing the average seedling weight in the presence of glyphosate by the average seedling weight found in the absence of glyphosate.

[2] = tested on: E. coli; assay: Complementation assay in E. coli using A. thaliana EPSPS variants, growth in M9 medium with glyphosate; format: cell-based; conditions: 30 mM glyphosate; for glyphosate resistance (bacterial growth, OD600 over time): E. coli BL21 expressing A. thaliana EPSPS variant, M9 medium, 1 mM IPTG, 25° C.
Text: Each of these EPSPS variants was then cloned as a 1576 bps EcoRI-BamHI fragment into the vector pET302 NT HIS (Invitrogen, product K630203), fusing the EPSPS variants to a 6× His tag and allowing inducible protein expression with IPTG in E. coli. These constructs were introduced into the E. coli expression strain BL21 OAS (Invitrogen) for complementation assays.
E. coli is unable to grow in minimal M9 growth medium supplemented with glyphosate due to inhibition of the activity of the endogenous bacterial EPSP synthase AroA. Bacterial growth can be restored by complementation with a glyphosate resistant plant EPSPS gene. The E. coli strains containing the A. thaliana EPSPS variants were grown overnight in 10 ml LB medium containing 100 μg/ml carbenicillin (Duchefa). Strains were then diluted 4 fold in the same medium and allowed to grow for a further 4 hours. The […] of each culture was then measured and 1.5 ml culture was centrifuged at 4000 rpm for 10 minutes. The bacterial pellet was resuspended in 500 μl M9 medium (12.8 g/l Na2HPO4, 3.0 g/l KH2PO4, 0.5 g/l NaCl, 1.0 g/l NH4Cl, 2.0 g/l glucose, 0.4940 g/l MgSO4.7H2O, 15 mg/l CaCl2.2H2O, thiamine and 10 mg/l FeSO4.7H2O) used to inoculate 10 ml M9 medium containing 1 mM IPTG and 100 μg/ml carbenicillin and 30 mM glyphosate to an OD600 of 0.1. Identical cultures for each strain were also made lacking glyphosate and these were used to assess the growth of each strain without selection. The cultures were then grown at 25° C. and the OD600 was measured over time to assess bacterial growth (see FIG. 2).

[3] = E. coli EPSPS, Eschenburg et al. 2002; cited from earlier work

B1: P106L: A. thaliana EPSPS with Proline at position 106 changed into Leucine (SEQ ID NO:12) (protein, listed as Arabidopsis thaliana)
chain: MAQVSRICNGVQNPSLISNLSKSSQRKSPLSVSLKTQQHPRAYPISSSWGLKKSGMTLIGSELRPLKVMSSVSTAEKASEIVLQPIREISGLIKLPGSKSLSNRILLLAALSEGTTVVDNLLNSDDINYMLDALKRLGLNVETDSENNRAVVEGCGGIFPASIDSKSDIELYLGNAGTAMRLLTAAVTAAGGNASYVLDGVPRMRERPIGDLVVGLKQLGADVECTLGTNCPPVRVNANGGLPGGKVKLSGSISSQYLTALLMSAPLALGDVEIEIVDKLISVPYVEMTLKLMERFGVSVEHSDSWDRFFVKGGQKYKSPGNAYVEGDASSASYFLAGAAITGETVTVEGCGTTSLQGDVKFAEVLEKMGCKVSWTENSVTVTGPPRDAFGMRHLRAIDVNMNKMPDVAMTLAVVALFADGPTTIRDVASWRVKETERMIAICTELRKLGATVEEGSDYCVITPPKKVKTAEIDTYDDHRMAMAFSLAACADVPITINDPGCTRKTFPDYFQVLERITKH
[1]
  glyphosate resistance (ratio of average seedling weight +Gly/-Gly): reasonable resistance
[2]
  glyphosate resistance (bacterial growth, OD600 over time): good level of resistance

B2: wild type (WT): Arabidopsis thaliana EPSPS (At2g45300), unmutated, SEQ ID NO:9/10 (protein, listed as Arabidopsis thaliana)
chain: MAQVSRICNGVQNPSLISNLSKSSQRKSPLSVSLKTQQHPRAYPISSSWGLKKSGMTLIGSELRPLKVMSSVSTAEKASEIVLQPIREISGLIKLPGSKSLSNRILLLAALSEGTTVVDNLLNSDDINYMLDALKRLGLNVETDSENNRAVVEGCGGIFPASIDSKSDIELYLGNAGTAMRPLTAAVTAAGGNASYVLDGVPRMRERPIGDLVVGLKQLGADVECTLGTNCPPVRVNANGGLPGGKVKLSGSISSQYLTALLMSAPLALGDVEIEIVDKLISVPYVEMTLKLMERFGVSVEHSDSWDRFFVKGGQKYKSPGNAYVEGDASSASYFLAGAAITGETVTVEGCGTTSLQGDVKFAEVLEKMGCKVSWTENSVTVTGPPRDAFGMRHLRAIDVNMNKMPDVAMTLAVVALFADGPTTIRDVASWRVKETERMIAICTELRKLGATVEEGSDYCVITPPKKVKTAEIDTYDDHRMAMAFSLAACADVPITINDPGCTRKTFPDYFQVLERITKH
[2]
  glyphosate resistance (bacterial growth, OD600 over time): able to complement bacterial growth at later time points

B3: N44D+P106L: A. thaliana EPSPS double mutant N44D and P106L (SEQ ID NO:13) (protein, listed as Arabidopsis thaliana)
chain: MAQVSRICNGVQNPSLISNLSKSSQRKSPLSVSLKTQQHPRAYPISSSWGLKKSGMTLIGSELRPLKVMSSVSTAEKASEIVLQPIREISGLIKLPGSKSLSNRILLLAALSEGTTVVDDLLNSDDINYMLDALKRLGLNVETDSENNRAVVEGCGGIFPASIDSKSDIELYLGNAGTAMRLLTAAVTAAGGNASYVLDGVPRMRERPIGDLVVGLKQLGADVECTLGTNCPPVRVNANGGLPGGKVKLSGSISSQYLTALLMSAPLALGDVEIEIVDKLISVPYVEMTLKLMERFGVSVEHSDSWDRFFVKGGQKYKSPGNAYVEGDASSASYFLAGAAITGETVTVEGCGTTSLQGDVKFAEVLEKMGCKVSWTENSVTVTGPPRDAFGMRHLRAIDVNMNKMPDVAMTLAVVALFADGPTTIRDVASWRVKETERMIAICTELRKLGATVEEGSDYCVITPPKKVKTAEIDTYDDHRMAMAFSLAACADVPITINDPGCTRKTFPDYFQVLERITKH
[1]
  glyphosate resistance (ratio of average seedling weight +Gly/-Gly): enhanced
[2]
  glyphosate resistance (bacterial growth, OD600 over time): strongly enhanced
[2]; N44D combined with P106L, after 18 hours of growth
  enhancement of resistance levels: 2.5 fold

B4: N44D+S179N: A. thaliana EPSPS double mutant N44D and S179N (SEQ ID NO:16) (protein, listed as Arabidopsis thaliana)
chain: MAQVSRICNGVQNPSLISNLSKSSQRKSPLSVSLKTQQHPRAYPISSSWGLKKSGMTLIGSELRPLKVMSSVSTAEKASEIVLQPIREISGLIKLPGSKSLSNRILLLAALSEGTTVVDDLLNSDDINYMLDALKRLGLNVETDSENNRAVVEGCGGIFPASIDSKSDIELYLGNAGTAMRPLTAAVTAAGGNASYVLDGVPRMRERPIGDLVVGLKQLGADVECTLGTNCPPVRVNANGGLPGGKVKLSGSISNQYLTALLMSAPLALGDVEIEIVDKLISVPYVEMTLKLMERFGVSVEHSDSWDRFFVKGGQKYKSPGNAYVEGDASSASYFLAGAAITGETVTVEGCGTTSLQGDVKFAEVLEKMGCKVSWTENSVTVTGPPRDAFGMRHLRAIDVNMNKMPDVAMTLAVVALFADGPTTIRDVASWRVKETERMIAICTELRKLGATVEEGSDYCVITPPKKVKTAEIDTYDDHRMAMAFSLAACADVPITINDPGCTRKTFPDYFQVLERITKH
[1]
  glyphosate resistance (ratio of average seedling weight +Gly/-Gly): confers resistance

B5: N44D: A. thaliana EPSPS with Asparagine at position 44 changed into Aspartic Acid (SEQ ID NO:11) (protein, listed as Arabidopsis thaliana)
chain: MAQVSRICNGVQNPSLISNLSKSSQRKSPLSVSLKTQQHPRAYPISSSWGLKKSGMTLIGSELRPLKVMSSVSTAEKASEIVLQPIREISGLIKLPGSKSLSNRILLLAALSEGTTVVDDLLNSDDINYMLDALKRLGLNVETDSENNRAVVEGCGGIFPASIDSKSDIELYLGNAGTAMRPLTAAVTAAGGNASYVLDGVPRMRERPIGDLVVGLKQLGADVECTLGTNCPPVRVNANGGLPGGKVKLSGSISSQYLTALLMSAPLALGDVEIEIVDKLISVPYVEMTLKLMERFGVSVEHSDSWDRFFVKGGQKYKSPGNAYVEGDASSASYFLAGAAITGETVTVEGCGTTSLQGDVKFAEVLEKMGCKVSWTENSVTVTGPPRDAFGMRHLRAIDVNMNKMPDVAMTLAVVALFADGPTTIRDVASWRVKETERMIAICTELRKLGATVEEGSDYCVITPPKKVKTAEIDTYDDHRMAMAFSLAACADVPITINDPGCTRKTFPDYFQVLERITKH
[1]
  glyphosate resistance (ratio of average seedling weight +Gly/-Gly): lead to glyphosate resistance
[2]
  glyphosate resistance (bacterial growth, OD600 over time): some resistance to glyphosate; also recorded: provides tolerance to glyphosate

B6: G101A: EPSPS with Glycine at position 101 changed into Alanine (position 96 in E. coli; SEQ ID NO:17) (protein, listed as Arabidopsis thaliana)
chain: MAQVSRICNGVQNPSLISNLSKSSQRKSPLSVSLKTQQHPRAYPISSSWGLKKSGMTLIGSELRPLKVMSSVSTAEKASEIVLQPIREISGLIKLPGSKSLSNRILLLAALSEGTTVVDNLLNSDDINYMLDALKRLGLNVETDSENNRAVVEGCGGIFPASIDSKSDIELYLGNAATAMRPLTAAVTAAGGNASYVLDGVPRMRERPIGDLVVGLKQLGADVECTLGTNCPPVRVNANGGLPGGKVKLSGSISSQYLTALLMSAPLALGDVEIEIVDKLISVPYVEMTLKLMERFGVSVEHSDSWDRFFVKGGQKYKSPGNAYVEGDASSASYFLAGAAITGETVTVEGCGTTSLQGDVKFAEVLEKMGCKVSWTENSVTVTGPPRDAFGMRHLRAIDVNMNKMPDVAMTLAVVALFADGPTTIRDVASWRVKETERMIAICTELRKLGATVEEGSDYCVITPPKKVKTAEIDTYDDHRMAMAFSLAACADVPITINDPGCTRKTFPDYFQVLERITKH
[3]
  Km of PEP: increase
